According to the nanobody polyreactivity screen of Harvey et al. (2022):

Assay: yeast display, Sf9 membrane polyspecificity reagent, FACS + sequencing; frameworks hold sequencing errors
Summary of the method: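 In a synthetic yeast display library (Saccharomyces cerevisiae BJ5465), nanobody expression was induced with galactose for 36–48 hours. FACS gates were set low and high (top ~1%) using anti-HA fluorescence for expression and streptavidin fluorescence for binding of the Sf9 membrane reagent. Each polyreactivity label is drawn from the gate of origin.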

Row | Sequence | polyreactivity (PSR sort gate)
1 | QVQHVESGGGLVQAGGSLRLSCAASGIIFGTNALGWYRQAPGKERELVAYITSGGSTYADSVKGRFTISRDNAKNTVYLQMNSLKPEDTAVYYCAAYVFWAFYEYDYWGQGTQVTVSS | low polyreactivity
2 | QVQHVESGGGLVQAGGSLRLSCAASGIIFTTYAMGWYRQAPGKERELVAAISRSGSTYYADSVKGRFTISRDNAKNTVYLQMNSLKPEDTAVYYCASGRWRWRGYDYYWGQGSQVTVSS | high polyreactivity
3 | QVQHVESGGGLVQAGGSLRLSCAASGITFFYYAMGWYRQAPGKERELVAAISTSGGRTYYADSVKGRFTISRDNAKNTVYLQMNSLKPEDTAVYYCADQSGWLRYYYWGQGTQVTVSS | high polyreactivity
4 | QVQHVESGGGLVQAGGSLRLSCAASGLIFSRYVMGWYRQAPGKERELVAAISRSGGSTYYADSVKGRFTISRDNAKNTVYLQMNSLKPEDTAVYYCNAGRRTGRYGYWGQGTQVTVSS | high polyreactivity
5 | QVQHVESGGGLVQAGGSLRLSCAASGLTFSYNAMGWYRQAPAKERELVAAIRSGGSTNYADSVKGRFTISRDNAKNTVYLEMYSLKPVDSAVYFCADKSVTGVFRYYYWGQGSQVTVSS | low polyreactivity
6 | QVQHVESGGGLVQAGGSLRLSCAASGLTFYSYAMGWYRQAPGKERELVATISGGGSTTYADSVKGRFTISRDNAKNTVYLQMNSLKPEDTAVYYCAARSNHYRGWPVPLGYWGQGTQVTVSS | high polyreactivity
7 | QVQHVESGGGLVQAGGSLRLSCAASGRIFDTYTMGWYRAAPGKVRELVAAITSGGSTYYADSVKGRFTISRDNATNTVYLQMNSLKPEDTAVYYCAARYRSIIRYYYWGQGTQVTVSS | high polyreactivity
8 | QVQHVESGGGLVQAGGSLRLSCAASGRIFHFNAMGWYRQAPGKERELVAAISYRGGSTYYADSVKGRFTISRDNAKNTVYLQMNSLKPEDTAVYYCAAYTRHSARTYYYSYDYWGQGTQVTVSS | high polyreactivity
9 | QVQHVESGGGLVQAGGSLRLSCAASGRIFNRYAMVWYRQAPGKERELVAAISASGDNTYYADSVKGRFTISRDNAKNTVYLQMISLKPEDTAVFYCAARYYTYLHFSMYYWGQGTQVTVSS | high polyreactivity
10 | QVQHVESGGGLVQAGGSLRLSCAASGRIFRDNAMGRNRQAPGKEREVVAAISRRGGSTYYADSVKGRFTISRDNAKNTVYLQLNSLKPEDTAVYYCNKTTHSRTFRYDYWGQGTQVTVSS | low polyreactivity
11 | QVQHVESGGGLVQAGGSLRLSCAASGRIFWDNASGWYRQAPGKVSELHAAISDSVVITYFADSVKGRFTISRDTAKYTVYLQMNSLKPEDTAFYYCAAHKRCTVYLSSFWMDYWGQGNQVTVSS | low polyreactivity
12 | QVQHVESGGGLVQAGGSLRLSCAASGRIFYAYTMGWYRQAPGKERELGAAISRSGSTYYADSVKGRFTISRDNAKNPVYLQMNSLKPEDTAVYYCAADVTGGRKYDYWGQGTQVTVSS | low polyreactivity
13 | QVQHVESGGGLVQAGGSLRLSCAASGRIIPGNAMGWYRQAPGKERDLVAAISYGGGSTYYADSVKGRFTISRDNAKNTVYLQMNSLKPEATAVYYCNAGWIRNYGFSIVTYDYWGQGTQVTVSS | low polyreactivity
14 | QVQHVESGGGLVQAGGSLRLSCAASGRTFFENAMGWYRQAPGKEMELVAAISWDGGTTYADSVKGRFSISRDNAKNTVYLQMNSLKPEDTAVYYCNAEVRSNDARGDNDYCGQGTQVTVSS | low polyreactivity
15 | QVQHVESGGGLVQAGGSLRLSCAASGRTFGFNAMGWYRQATGKERELVAAITYSGGRTYYADSVKGRFTISRDNAKNTVYLHMNSLKPEDTAVYFCAALTRRVKKYDYLGQGTQVTVSS | high polyreactivity
16 | QVQHVESGGGLVQAGGSLRLSCAASGRTFGYNDMGWSRQAHGKERELVATISWGGGSTYYADSVKWRFTISRDNAKNTVYLQMNSLKAEDTAVYYCNKVHFGRRHSYSGAIYGEDYWGLGTQVTVSS | high polyreactivity

Row | Sequence | polyreactivity (PSR sort gate)
17 | QVQHVESGGGLVQAGGSLRLSCAASGRTFHWYAMGWYRQAPGKERELVAAIRYSAGSTYYADSVKGRFTISRDNAKNTVYLQMNSLKPEDTAVYYCAARPPYTDSSPGERTYDYWGQGTQVTVSS | low polyreactivity
18 | QVQHVESGGGLVQAGGSLRLSCAASGRTFITYAMGWYRQGPGKERELVATISGGGGTNYADSVKGRFTISRDNAKNTVYLQMNSLKPEDTAVYYCNKRAWYVYTHFDYWGLGTQVTVSS | low polyreactivity
19 | QVQHVESGGGLVQAGGSLRLSCAASGRTFKYNAMGWYRQAPGKEWELVAVIRYSGGTTYYADSVKGRFTISRDNAKNTVYLQMNSLKPEDTAVYYCAADSWSRSVNYYYWVQGTQVTVSS | low polyreactivity
20 | QVQHVESGGGLVQAGGSLRLSCAASGRTFPAYAMGWYRQAPGKERELVAAITYDGGTTYYADSVKGRFTISRYNAKNTVYLQMNSLKPEDTAVYYCADVYDEDQYDYWGQGTQVTVSS | low polyreactivity
21 | QVQHVESGGGLVQAGGSLRLSCAASGRTFRRNAVGWYRQAPGNERELVATISRGGSTTYADSVKGRFTISRDKAKNTVYLQMNSLKPEDTAVYYCAARTSKRYSYADHDYWGQGTQVTVSS | low polyreactivity
22 | QVQHVESGGGLVQAGGSLRLSCAASGRTFTPYAMGWYRQAPGKEREFVAAISIVGRTKYADSVKGRFTISRDNAKNTVYLQMNSLKPEDTAVYYCNAQDSRDRKFYWGYTRGHWGQGTQVTVSS | low polyreactivity
23 | QVQHVESGGGLVQAGGSLRLSCAASGSIFGQYAMGWDRQSPGKERELVAAISTSGGSTYYADSVKGRFTISRDNAKYSVYLQMYSLKPEDTAVYYCNAFNYGTQTYGYWGQGTQVTVSS | high polyreactivity
24 | QVQHVESGGGLVQAGGSLRLSCAASGSIFTDYAMGWYRQAPGHDRELVAAITLGGNTNYADSVKGRFTISRDNAKHSVYLEMISLLREDTAVYDCATGGYYSAIVYGGYDVWGQGTQVTVSS | low polyreactivity
25 | QVQHVESGGGLVQAGGSLRLSCAASGSIFTGNAMGWYRQAPGKERELVAAISSSGGSTYYADSVKGRFTISRDNAKNTVYLQMNSLKPEDTAVYYCAAYNYFLQYDYWGQGTQVTVSS | low polyreactivity
26 | QVQHVESGGGLVQAGGSLRLSCAASGSIFVYYAMGGYRQAPGKERELVAAISRSGGNTYYADSVKGRFTISRDNAKNTVYLQMNSLKPEDTAVYYCAAQPYVEGTKRYYWGQGTQVTVSS | high polyreactivity
27 | QVQHVESGGGLVQAGGSLRLSCAASGSIFYIYAMGWYRQAPGKERELVASISRSGGSTYYADSVKGRFTISRDNAKNTVYLQMNSLKPEDTAVYYCAAVITFYRYPPGETYYYWGQGTQVTVSS | high polyreactivity
28 | QVQHVESGGGLVQAGGSLRLSCAASGSILDIYAMGWYRQATGKERELVAAITGGGSTNYADSVNGRFTISRDNAKNTVYLLMNSLKPEDTAVYYCAAGTYLNGGGEYWGQGTQVTVSS | low polyreactivity
29 | QVQHVESGGGLVQAGGSLRLSCAASGSILPFNAMGWYRQAPGKVRELVAAIDGSGGDTYYADSVKGRFTISRDNAKNTVYLQMNSLKAEDTAVYYCAAEYYYTSQLAKYHYGYEYWGQGTQETVSS | high polyreactivity
30 | QVQHVESGGGLVQAGGSLRLSCAASGSTFGRYAMGWYRQAPGKERELVARISWGGGSTYYADSVKGRFTISRDNAKNTVYLQMNSLKPEDSAVYYCATRVYRSAVSYDYWGQGTQVTVSS | high polyreactivity
31 | QVQHVESGGGLVQAGGSLRLSCAASGSTFRTYGMGWYRQAPGKERELVAGITRGGSTTYADSVKGRFTISRDNAKNTVYLQMNSLKPEDTAVYYCNAGYVRVRAHNYDYWGQGTQVTVSS | high polyreactivity
32 | QVQHVESGGGLVQAGGSLRLSCAASGSTFSQYGMGWYRQAPGKEREFVAGISGSGGRTYYADSVKGRFTSSRDNAKNTVYLQMNSLKPEDTAVYYCAAETVYKWWYDYYYWGQGTQVTVSS | high polyreactivity
